These results are taken from article PMC5504686 (Molecular genetics and metabolism, 2017).

The data set “crystal structure” deals with the molecule itself. The experiment in a line: crystal structure.
Data set [1] concerns the target T1, alpha subunit of mature G172D Flavobacterium glycosylasparaginase (Flavobacterium, UniProt Q47898 46-196).
T1 sequence (looked up): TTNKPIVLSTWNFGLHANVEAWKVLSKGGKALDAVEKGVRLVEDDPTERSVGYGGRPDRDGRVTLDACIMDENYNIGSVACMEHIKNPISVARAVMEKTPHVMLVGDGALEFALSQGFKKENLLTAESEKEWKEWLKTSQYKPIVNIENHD
The experiment in a line: crystal structure.

B1: mature form of the G172D mutant of Flavobacterium glycosylasparaginase (one alpha and one beta chain) (complex)
chain 1: TTNKPIVLSTWNFGLHANVEAWKVLSKGGKALDAVEKGVRLVEDDPTERSVGYGGRPDRDGRVTLDACIMDENYNIGSVACMEHIKNPISVARAVMEKTPHVMLVGDGALEFALSQGFKKENLLTAESEKEWKEWLKTSQYKPIVNIENHD
chain 2: TIGMIALDAQGNLSGACTTSDMAYKMHGRVGDSPIIGAGLFVDNEIGAATATGHGEEVIRTVGTHLVVELMNQGRTPQQACKEAVERIVKIVNRRGKNLKDIQVGFIALNKKGEYGAYCIQDGFNFAVHDQKGNRLETPGFALK
Turning to B1, the binding result in the data set “crystal structure” is on record as “binds”.

B2: beta subunit of mature G172D Flavobacterium glycosylasparaginase (domain or fragment, UniProt Q47898 197-340, looked up)
chain: TIGMIALDAQGNLSGACTTSDMAYKMHGRVGDSPIIGAGLFVDNEIGAATATGHGEEVIRTVGTHLVVELMNQGRTPQQACKEAVERIVKIVNRRGKNLKDIQVGFIALNKKGEYGAYCIQDGFNFAVHDQKGNRLETPGFALK
Take B2: the binding result in data set [1] was “binds”.
